Target: recombinant S. pombe eIF2B, one set of the five subunits (α, β, γ, δ, ε), tags cleaved (S. pombe) (UniProt Q9USP0)
Assay: SEC; purified complex after HRV 3C cleavage of the tags; Sephacryl S-300, then Superose 6 with HMW calibration kit, buffer C (20 mM HEPES-KOH pH 7.5, 150 mM KCl, 5 % glycerol, 1 mM DTT), 277 K; SDS-PAGE of the purified complex

For “recombinant S. pombe eIF2B, one set of the five subunits (α, β, γ, δ, ε), tags cleaved, Q9USP0 1-341; Q9UT76 1-393; P56288 1-458; Q09924 1-467; P56287 1-678”, which stoichiometry N is on record?
The stoichiometry N was 2.

Reference: article PMC4833825
